The record followed here is US20090215878.

This series deals with ZFP-TF 8982-KRAB. Nature of the series: cell_activity. The settings on record: rat DRG neurons, lentiviral; Nav1.8 mRNA vs GFP control; which of SEQ 2 (GAA) or SEQ 3 (CAA) is the rat site is not stated.

In turn, “GAAGAAGAATGAGAAGATG (double strand) [Nav1.8 target site (GAA variant)]” came in with an activity (fold repression) of 10.
